{"source": "patent US10253089B2", "about": "“Matrix metalloproteinase cleavable protein polymers for cancer gene therapy” (The University of Utah Research Foundation, priority 2012, dated 2019)", "molecules": {"B1": {"name": "SELP815K: silk-elastin-like protein polymer, longer silk units, fifteen elastin units, lysine elastin unit; monomer repeated 6 times (SEQ ID NO. 21) (protein)", "chain": "MDPVVLQRRDWENPGVTQLNRLAAHPPFASDPMGAGSGAGAGSGAGAGSGVGVPGVGVPGVGVPGVGVPGKGVPGVGVPGVGVPGVGVPGVGVPGVGVPGVGVPGVGVPGVGVPGVGVPGVGVPGVGVPGAGAGSGAGAGSGAGAGSGAGAGSGAGAGSGAGAGAGSGAGAGSGAGAGSGVGVPGVGVPGVGVPGVGVPGKGVPGVGVPGVGVPGVGVPGVGVPGVGVPGVGVPGVGVPGVGVPGVGVPGVGVPGVGVPGAGAGSGAGAGSGAGAGSGAGAGSGAGAGSGAGAGAGSGAGAGSGAGAGSGVGVPGVGVPGVGVPGVGVPGKGVPGVGVPGVGVPGVGVPGVGVPGVGVPGVGVPGVGVPGVGVPGVGVPGVGVPGVGVPGAGAGSGAGAGSGAGAGSGAGAGSGAGAGSGAGAGAGSGAGAGSGAGAGSGVGVPGVGVPGVGVPGVGVPGKGVPGVGVPGVGVPGVGVPGVGVPGVGVPGVGVPGVGVPGVGVPGVGVPGVGVPGVGVPGAGAGSGAGAGSGAGAGSGAGAGSGAGAGSGAGAGAGSGAGAGSGAGAGSGVGVPGVGVPGVGVPGVGVPGKGVPGVGVPGVGVPGVGVPGVGVPGVGVPGVGVPGVGVPGVGVPGVGVPGVGVPGVGVPGAGAGSGAGAGSGAGAGSGAGAGSGAGAGSGAGAGAGSGAGAGSGAGAGSGVGVPGVGVPGVGVPGVGVPGKGVPGVGVPGVGVPGVGVPGVGVPGVGVPGVGVPGVGVPGVGVPGVGVPGVGVPGVGVPGAGAGSGAGAGSGAGAGSGAGAGSGAGAGSGAGAMDPGRYQDLRSHHHHHH", "modifications": "monomer repeated 6 times; Hybrid of Homo sapein and Bombyx mori"}}, "key": {"[1]": {"experiment": "Small angle neutron scattering (SANS) of SELP hydrogels", "assay_type": "physicochemical", "details": "12 wt %", "source_text": "To gain further insight into the hydrogel pore structure, network properties were examined as a function of polymer sequence by small angle neutron scattering (SANS) techniques (FIG. 9). SANS allows the examination of microstructures in the range 1-100 nm through the analysis of elastic neutron scattering. SANS analysis was used to examine the correlation between the observed macroscopic properties of SELPs (12% wt), such as equilibrium swelling and mechanical modulus, with the underlying network structure. […] SELP hydrogels conformed closely with a modified gel model of the general form I(Q)=AQ^b+(BQ^2ε^2)^2+C, which uses a power-law fit for the high q scattering combined with the Debye-Bueche model at low to intermediate Q (above Q=0.02 Å^−1). The combined Debye-Bueche/power law model provided a nearly complete fit over the full q-range of collected data. […] The calculated correlation length (Table 3) depicts a trend in the observation that are in the order SELP-415K>SELP-815K>SELP-47K. […] The silk blocks of SELP-415K are separated by elastin blocks twice the length as −47K, and as these cross-linking blocks move further apart, the elastin-like nature of the SELP becomes more pronounced and the storage modulus decreases. SELP-815K presents an interesting case where the silk blocks are doubled in length over SELP-47K while also having a long elastin block as in SELP415K."}, "JHU-022 tumors": {"test_system": "JHU-022 tumors", "experiment": "GDEPT (HSV-tk/GCV) efficacy study, tumor size and luciferase imaging", "assay_type": "in vivo, nude mice", "details": "4 wt % with virus + GCV", "method": "In order to fully illustrate the potential of SELP as an injectable, in situ gel forming delivery system for the treatment of HNSCC solid tumors, a study was performed on the efficacy of this system using a GDEPT approach. The system chosen was herpes simplex virus thymidine kinase (HSV-tk) as the enzyme, and ganciclovir (GCV) as the prodrug. To accomplish this, a custom adenoviral construct was designed and used for this study. The construct contained genes which encode for HSV-tk and genes which encode for luciferase, a common reporter enzyme. This novel construct allowed both efficacy and biodistribution to be assessed simultaneously in vivo. Specifically, by combining these two genes in one virus, it becomes possible to track the location of transfection while simultaneously evaluating the efficacy of the treatment.\nAppropriate controls were included. Luciferase expression was measured by injecting luciferin potassium salt intraperitoneally, and following appropriate time to allow distribution of luciferin the animals were imaged using a Xenogen IVIS100 imaging system (Caliper Life Sciences, Hopkinton, Mass.) which allows visualization of luciferase expression without sacrificing the animal. As a measure of efficacy the tumors were measured with calipers every 3 to 4 days. […]"}, "MMP-9 [2]": {"biological_target": "T1, MMP-9 (Homo sapiens, UniProt P14780)", "T1 sequence (P14780 94-707)": "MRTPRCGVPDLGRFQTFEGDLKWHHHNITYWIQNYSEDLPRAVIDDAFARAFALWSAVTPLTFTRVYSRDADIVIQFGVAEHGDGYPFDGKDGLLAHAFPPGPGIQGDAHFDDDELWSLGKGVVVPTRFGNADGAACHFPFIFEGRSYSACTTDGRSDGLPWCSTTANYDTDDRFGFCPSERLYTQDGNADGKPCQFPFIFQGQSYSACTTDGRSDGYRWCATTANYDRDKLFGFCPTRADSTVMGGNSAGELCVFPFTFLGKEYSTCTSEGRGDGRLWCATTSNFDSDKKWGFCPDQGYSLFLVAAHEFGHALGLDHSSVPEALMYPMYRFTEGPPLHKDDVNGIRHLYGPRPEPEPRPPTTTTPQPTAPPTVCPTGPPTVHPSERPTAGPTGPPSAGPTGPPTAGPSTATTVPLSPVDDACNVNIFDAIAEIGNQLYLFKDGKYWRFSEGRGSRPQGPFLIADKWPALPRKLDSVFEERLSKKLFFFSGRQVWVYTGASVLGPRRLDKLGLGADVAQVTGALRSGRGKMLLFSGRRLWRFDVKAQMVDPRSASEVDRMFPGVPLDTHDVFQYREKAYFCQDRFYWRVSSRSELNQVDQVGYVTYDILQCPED", "experiment": "Enzymatic digest of polymer by MMP-9, SDS-PAGE", "assay_type": "biochemical", "details": "1 mg/ml polymer, 10 nM and 40 nM MMP-9, 2-48 hours, room temperature", "method": "This buffer recipe is sourced from the Molecular Probes EnzChek Gelatinase/Collagenase Assay Kit (Invitrogen, Carlsbad, Calif.), which was used to confirm the activity of MMP-2 and MMP-9 prior to use. 2× Laemmli Buffer was supplemented with 5% β-mercaptoethanol and added 1:1 by volume to the polymer solutions, which were then placed in a PCR thermal cycler and heated to 95° C. for five minutes to denature the protein. 25 μl of each sample was added to 4-15% Bis-Tris precast PAGE gel and electrophoresis was performed at 200V until the dye front reached the bottom of the gel, approximately 30 minutes. Kaleidoscope protein standard was used as a molecular weight marker. Following electrophoresis, gels were stained with GelCode Blue (colloidal Coomassie formulation) following manufacturer's instructions for staining and destaining.\n100 μl samples of each polymer were digested with a final concentration of 10 nM and 40 nM MMP-2 or MMP-9. MMP samples were incubated at room temperature for 2, 4, 12, 24, 36, and 48 hours and samples were run on PAGE gels and stained with GelCode Blue to visualize band patterns corresponding to protein degradation.\nAdditionally, this digestion is dependent on both time of exposure and concentration of MMP."}, "MMP-9 [3]": {"biological_target": "T1, MMP-9", "experiment": "Hydrogel protein loss in the presence of MMP-9", "assay_type": "biochemical", "details": "10 wt % hydrogel, MMP-9 10 nM, two weeks", "method": "The properties of hydrogels formed from SELPs are strongly dependent on the shear applied to liquid solutions of polymer prior to gelation. SELPs solubilized in phosphate buffered saline were loaded into a 1 ml luer-lock syringe connected at the hub to another 1 ml luer-lock syringe via two 27G needles, joined by a section of 0.0155″ HPLC tubing. The SELP solution was passed through this device at maximum hand pressure for five full bidirectional cycles, at which point it was used for studies.\nHydrogels were characterized for their sensitivity to MMP degradation in the context of protein loss from the gel, changes in mechanical properties, and release of model 100 nm fluorescent nanoparticles. […] Syringes were sealed with Parafilm and allowed to gel upright overnight at 37° C. […]\nProtein loss was quantified using a Modified Lowry Assay Kit, and using known SELP solutions for the standard curve instead of the supplied bovine serum albumin, as SELP contains few Lowry-reactive amino acids. The mechanical properties of SELPs were evaluated in cyclic compression at 1 Hz and 1% strain, with ˜10 grams of preloading applied for 10 minutes to eliminate stress relaxation. Stress was measured using a 2 lb load cell. Release was quantified by measuring the fluorescence of release samples with an excitation/emission of 260/515. […]"}}, "data": [{"molecule": "B1", "values": [{"measurement": "Debye-Bueche mid-Q slope", "setting": "[1]", "value": "~−3"}, {"measurement": "Power-law low Q slope", "setting": "[1]", "value": 3.26}, {"measurement": "tumor regrowth / recovery observation", "setting": "JHU-022 tumors; out to day 33", "value": "full recovery, with no evidence of a tumor out to day 33"}, {"measurement": "reduction in tumor size compared to virus in saline", "setting": "JHU-022 tumors; over 33 days", "value": 3, "unit": "fold"}, {"measurement": "digestion by MMP-9", "setting": "MMP-9 [2]", "value": "is not"}, {"measurement": "higher protein loss compared to control", "setting": "MMP-9 [3]", "value": "statistically insignificant"}]}]}
